The record followed here is PMC3823766, “Paralogs hnRNP L and hnRNP LL Exhibit Overlapping but Distinct RNA Binding Constraints”.

The term Kd denotes the free concentration of one partner at which half of the binding sites on the other are occupied at equilibrium, for simple one-to-one binding.

Holding throughout (assay): EMSA; EMSA: ~1 fmol 32P RNA (0.1 nM), 4.5% native PAGE; binding buffer as in cited ref 9, not given; BC50 values printed only in figures
In series [1] the target is T1, FLAG-hnRNP LL (UniProt Q8WVV9 1-542).
T1 sequence: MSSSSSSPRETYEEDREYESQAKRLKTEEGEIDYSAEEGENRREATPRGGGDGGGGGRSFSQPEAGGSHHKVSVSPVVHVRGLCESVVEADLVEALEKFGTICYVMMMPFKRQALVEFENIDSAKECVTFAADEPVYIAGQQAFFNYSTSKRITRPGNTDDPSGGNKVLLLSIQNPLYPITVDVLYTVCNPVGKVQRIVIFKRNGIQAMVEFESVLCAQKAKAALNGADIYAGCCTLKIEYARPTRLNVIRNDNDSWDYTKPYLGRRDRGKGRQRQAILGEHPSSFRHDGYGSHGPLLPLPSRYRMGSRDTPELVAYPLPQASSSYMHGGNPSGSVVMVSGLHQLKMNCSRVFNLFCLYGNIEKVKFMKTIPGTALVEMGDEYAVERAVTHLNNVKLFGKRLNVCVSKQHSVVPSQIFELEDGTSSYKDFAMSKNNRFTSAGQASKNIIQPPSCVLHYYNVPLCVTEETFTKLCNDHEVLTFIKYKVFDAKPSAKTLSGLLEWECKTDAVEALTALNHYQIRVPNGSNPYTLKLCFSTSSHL
To be noted: protein: recombinant; tags: N-terminal FLAG; label: 32P-CTP body label.

Series [2] concerns the target T2, GST-hnRNP L (UniProt P14866 1-589).
T2 sequence: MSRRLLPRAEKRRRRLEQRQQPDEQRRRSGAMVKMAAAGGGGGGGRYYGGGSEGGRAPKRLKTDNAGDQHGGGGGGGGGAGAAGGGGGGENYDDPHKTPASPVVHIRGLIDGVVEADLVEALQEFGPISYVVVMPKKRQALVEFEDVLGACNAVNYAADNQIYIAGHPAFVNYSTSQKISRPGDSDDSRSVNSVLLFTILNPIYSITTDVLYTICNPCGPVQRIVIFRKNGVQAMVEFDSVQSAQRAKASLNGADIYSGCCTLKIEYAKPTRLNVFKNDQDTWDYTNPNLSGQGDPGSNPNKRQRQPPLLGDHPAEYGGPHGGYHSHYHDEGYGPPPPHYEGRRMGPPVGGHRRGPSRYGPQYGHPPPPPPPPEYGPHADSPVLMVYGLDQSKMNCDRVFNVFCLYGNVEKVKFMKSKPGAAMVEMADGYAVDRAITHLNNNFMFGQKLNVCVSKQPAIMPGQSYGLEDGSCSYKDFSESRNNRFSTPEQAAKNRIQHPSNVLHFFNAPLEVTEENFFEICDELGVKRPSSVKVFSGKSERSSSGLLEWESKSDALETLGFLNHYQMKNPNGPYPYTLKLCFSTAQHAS
The following applies: protein: recombinant; label: 32P-CTP body label.

In series [3] the target is T2, GST-hnRNP L. The following applies: protein: recombinant; label: 32P-CTP body label. This is another data set of the same source.
For series [4], the target named is T1, FLAG-hnRNP LL. The following applies: protein: recombinant; tags: N-terminal FLAG; label: 32P-CTP body label. The source holds these as a separate data set.
For series [5], the target named is T1, FLAG-hnRNP LL. To be noted: protein: recombinant; tags: N-terminal FLAG; label: 32P-CTP body label. This is another data set of the same source.
In series [6] the target is T2, GST-hnRNP L. To be noted: protein: recombinant; label: 32P-CTP body label. The source holds these as a separate data set.
The target of series [7] is T1, FLAG-hnRNP LL. The following applies: protein: recombinant; tags: N-terminal FLAG; label: 32P-CTP body label. This is another data set of the same source.

B1: CACACA x4 (N=2 ca spacer) (ssRNA)
RNA: GAUCCUUCACACAUUAGAUCUUUCACACAUUAGAUCUUUCACACAUUAGAUCUUUCACACAUUAGAUCU
As to B1, the binding result with FLAG-hnRNP LL [1] and in the series with GST-hnRNP L [2] was “binds” throughout. On to CUUACCUACUCACACCACUGCAUUCUCACCCGCAAGCACC (ssRNA) [ESS1 wild type], for which the Kd in the series with FLAG-hnRNP LL [1] and with GST-hnRNP L [2] was ~2 nM in each case. Take CUUACCUACUCACACCACUGCAUUCUGACCCGCAAGCACC (ssRNA) [ESS1 CA5 mutant (CA to GA)]: in the series with FLAG-hnRNP LL [1], the binding result is “binds”. On to CUUACCUACUCACACGACUGCAUUCUCACCCGCAAGCACC (ssRNA) [ESS1 CA3 mutant (CA to GA)], for which the binding signal with GST-hnRNP L [3] was ~4 fold weaker than ESS1. Also, in the series with FLAG-hnRNP LL [1], the binding result is “binds”. For CUUACCUACUCACACCACUGGAUUCUCACCCGCAAGCACC (ssRNA) [ESS1 CA4 mutant (CA to GA)], in the series with GST-hnRNP L [3], the binding signal was ~2 fold weaker than ESS1. In addition, in the series with FLAG-hnRNP LL [1], the binding result is “binds”. The matching figures for CUUACCUACUCAGACCACUGCAUUCUCACCCGCAAGCACC (ssRNA) [ESS1 CA2 mutant (CA to GA)]: ~2 fold weaker than ESS1 and “binds”. In the case of CUUACCUACUUACACCACUGCAUUCUCACCCGCAAGCACC (ssRNA) [ESS1 CA1 mutant (CA to TA)], the binding result with FLAG-hnRNP LL [1] was “binds”. CUUACCUACUCACACCACUGCAUUCUCACCCGGAAGCACC (ssRNA) [ESS1 CA6 mutant (CA to GA)]: the binding signal with GST-hnRNP L [3] is ~10 fold weaker than ESS1; with FLAG-hnRNP LL [4], > 5 fold weaker than ESS1. As for CUUACCUACUCACACCACUGCAUUCUCACCCGCAAGUACC (ssRNA) [ESS1 CA7 mutant (CA to TA)], the binding result in the series with GST-hnRNP L [2] was “binds”. The binding signal with FLAG-hnRNP LL [4] is > 5 fold weaker than ESS1.

B2: CAuaCA (N=2) (ssRNA)
RNA: GAUCCUACAUACAUAGAUCUUACAUACAUAGAUCUUACAUACAUAGAUCUUACAUACAUAGAUCU
On to B2, for which the binding result in the series with FLAG-hnRNP LL [1] and in the series with GST-hnRNP L [2] was “binds” each time.

B3: CAccCA (ssRNA)
RNA: GAUCCCCCACCCAAGAUCUCCCACCCAAGAUCUCCCACCCAAGAUCUCCCACCCAAGAUCU
For B3, the results for the binding signal with FLAG-hnRNP LL [5] and with GST-hnRNP L [6] were 5 fold weaker than CACACA and 15 fold weaker than CACACA, respectively.

B4: CAcCA (N=1) (ssRNA)
RNA: GAUCCUCACCACCAUAGAUCUUCACCACCAUAGAUCUUCACCACCAUAGAUCUUCACCACCAUAGAUCU
B4: the binding signal in the series with FLAG-hnRNP LL [7] was > 4 fold weaker than CACACA (at least). The binding result in the series with GST-hnRNP L [2] is recorded as “binds”.

B5: CA spacer N=3 (ssRNA)
RNA: GAUCCUACAUUACAUAGAUCUUACAUUACAUAGAUCUUACAUUACAUAGAUCUUACAUUACAUAGAUCU
With B5, the binding result with GST-hnRNP L [2] is “binds”.
